The target of data set [1] is T1, HIF-1 (HIF-1alpha/HIF-1beta (ARNT) heterodimer) (UniProt Q16665;P27540 Q16665:1-826,P27540:2-789). The experiment in a line: competition; TransAM; two sites. The settings on record: protein: extract; tags: none (endogenous, nuclear extract). The protocol: To assess the relative affinities of oligonucleotides for a HIF-1α containing complex, the HIF-1 TransAM assay (Active Motif, Catalog # 47096) was utilized. The assay was performed according to manufacturer's instructions. Briefly, a double-stranded oligonucletide containing the hypoxia response element (HRE) was immobilized on a 96-well plate. A nuclear extract containing HIF-1α complexes was incubated and allowed to bind to the immobilized oligonucleotide. The unbound material was washed away and the bound HIF-1α detected using an antibody that specificially recognizes HIF-1α. The anti-HIF-1α antibody was detected by a secondary antibody labeled with horseradish peroxidase (HRP), and the amount of HRP in each well was measured using a calorimetric substrate reaction and read using a microplate spectrophotometer.
The ability of candidate decoy molecules to compete for binding of HIF-1α to the HRE element-immobilized on the plate were measured and compared to reveal relative binding affinities. Candidate decoys were added in increasing molar ratios (relative to the amount of oligo immobilized on the plate) to compete for binding to the HIF-1α containing complexes. The amounts of decoys added to the assay included 0.625, 1.25, 2.5, 5, 10 and 20 fold molar excess. A well containing a competing decoy able to bind HIF-1α with high affinity would give a lower absorbance reading as compared to a decoy with low affinity for HIF-1α. All potential decoys were then compared and ranked in order to assess their relative binding affinities.
The screen was conducted using different decoy concentrations. For each UV absorbance reading, normalization was done by calculating the ratio of absorbance readings of sample vs. wild type control. The bigger ratio represents less competition of binding with HIF-1α when compared with wild-type control. The smaller (smaller than 1.0 or close to 1.0) ratios represent better binding or better competition.

Data set [2] concerns the target T1, HIF-1 (HIF-1alpha/HIF-1beta (ARNT) …). The experiment in a line: competition; TransAM absorbance ratio vs wild-type control at 2.5; lower = better (all Table 2B lines); 1.22 in Table 5. The settings on record: protein: extract; tags: none (endogenous, nuclear extract).

T1 sequence (Q16665 whole entry, chain 1 of 2): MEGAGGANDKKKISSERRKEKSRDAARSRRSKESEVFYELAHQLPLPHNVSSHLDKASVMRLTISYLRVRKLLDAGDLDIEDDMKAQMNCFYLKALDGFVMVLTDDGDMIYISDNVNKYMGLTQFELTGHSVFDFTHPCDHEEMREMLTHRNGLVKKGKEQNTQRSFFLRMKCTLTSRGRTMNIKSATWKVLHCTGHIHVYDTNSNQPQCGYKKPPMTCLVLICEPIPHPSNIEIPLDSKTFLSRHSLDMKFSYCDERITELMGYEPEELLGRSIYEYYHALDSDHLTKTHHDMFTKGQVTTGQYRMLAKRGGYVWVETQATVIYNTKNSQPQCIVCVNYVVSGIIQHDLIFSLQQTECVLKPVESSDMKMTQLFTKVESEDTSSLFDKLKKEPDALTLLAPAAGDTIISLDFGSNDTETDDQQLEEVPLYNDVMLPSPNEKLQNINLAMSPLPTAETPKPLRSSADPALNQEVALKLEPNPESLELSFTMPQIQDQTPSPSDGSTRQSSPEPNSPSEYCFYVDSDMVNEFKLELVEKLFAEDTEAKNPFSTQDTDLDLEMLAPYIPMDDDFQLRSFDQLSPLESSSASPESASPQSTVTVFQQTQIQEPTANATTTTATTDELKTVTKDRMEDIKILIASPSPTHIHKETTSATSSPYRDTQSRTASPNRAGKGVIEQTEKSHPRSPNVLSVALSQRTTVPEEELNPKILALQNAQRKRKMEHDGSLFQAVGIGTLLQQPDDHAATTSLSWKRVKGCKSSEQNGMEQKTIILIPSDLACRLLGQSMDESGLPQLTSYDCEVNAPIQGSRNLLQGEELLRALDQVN
T1 sequence (P27540 2-789, chain 2 of 2): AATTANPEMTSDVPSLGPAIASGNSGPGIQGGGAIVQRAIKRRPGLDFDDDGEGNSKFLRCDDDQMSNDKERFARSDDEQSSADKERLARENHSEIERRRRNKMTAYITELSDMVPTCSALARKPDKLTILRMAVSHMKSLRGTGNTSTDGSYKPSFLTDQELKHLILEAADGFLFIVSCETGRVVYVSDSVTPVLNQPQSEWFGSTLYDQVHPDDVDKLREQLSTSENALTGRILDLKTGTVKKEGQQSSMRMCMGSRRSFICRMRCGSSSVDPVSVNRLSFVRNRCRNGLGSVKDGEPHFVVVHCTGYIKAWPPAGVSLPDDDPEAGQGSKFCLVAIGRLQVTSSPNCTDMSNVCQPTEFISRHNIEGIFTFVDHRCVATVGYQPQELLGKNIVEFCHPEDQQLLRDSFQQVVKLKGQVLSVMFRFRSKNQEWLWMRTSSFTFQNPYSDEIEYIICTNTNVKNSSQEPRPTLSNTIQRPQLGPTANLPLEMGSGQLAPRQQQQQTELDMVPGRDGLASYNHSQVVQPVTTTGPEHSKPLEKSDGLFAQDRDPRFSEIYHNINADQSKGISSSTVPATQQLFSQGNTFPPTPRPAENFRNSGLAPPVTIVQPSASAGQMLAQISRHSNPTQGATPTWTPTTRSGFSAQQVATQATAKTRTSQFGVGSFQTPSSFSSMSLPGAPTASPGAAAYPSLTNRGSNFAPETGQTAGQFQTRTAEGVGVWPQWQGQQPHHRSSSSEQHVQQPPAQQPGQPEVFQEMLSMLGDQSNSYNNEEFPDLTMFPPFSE

B1: decoy 909 double (dsDNA)
DNA 1: AGCGGACGTGCAGATGCACGTCCTCT
DNA 2: AGAGGACGTGCATCTGCACGTCCGCT
In turn, B1 showed a binding signal in data set [1] of 1.72 ratio.

B2: decoy 907 double (dsDNA)
DNA 1: GAAATACGTGCGTGTGTACGTGCAGG
DNA 2: CCTGCACGTACACACGCACGTATTTC
B2 showed a binding signal in data set [1] of 0.91 ratio.

B3: decoy 819/820 double (dsDNA)
DNA 1: GAAATACGTGCGCTTTGTGTGTACGTGCAGGAA
DNA 2: TTCCTGCACGTACACACAAAGCGCACGTATTTC
Take B3: the binding signal in data set [1] was 1.16 ratio.

B4: decoy 857/858 double (dsDNA)
DNA 1: GCGGACGTGCGGGAACCCACGTGTAGG
DNA 2: CCTACACGTGGGTTCCCGCACGTCCGC
As to B4, the binding signal in data set [1] was determined as 2.46 ratio.

B5: decoy 841/842 double (dsDNA)
DNA 1: AGCGGACGTGCAGAAGTTGCACGTCCTCT
DNA 2: AGAGGACGTGCAACTTCTGCACGTCCGCT
In data set [1], B5 yielded a binding signal of 0.99 ratio.

B6: decoy 895/896 (dsDNA)
DNA 1: CACCAGCGTACGTGCCTCAGG
DNA 2: CCTGAGGCACGTACGCTGGTG
With B6, the binding signal in data set [2] is 1.13 ratio.
